Measurements published in patent US20190269666A1, “COMBINATION THERAPY WITH MERESTINIB AND ANTI-PD-L1 OR ANTI-PD-1 INHIBITORS FOR USE IN THE TREATMENT OF CANCER” (Eli Lilly and Company, priority 2016, published 2019).

What was measured:
Cyno PD-L1 = assay: Binding kinetics and affinity by surface plasmon resonance (Biacore); design: species or system cynomolgus monkey; conditions: SPR, analysis at 37° C.
Procedure: (§1) The kinetics and equilibrium dissociation constant (KD) for human PD-L1 is determined for antibodies of the present invention using surface plasmon resonance (Biacore).
(§2) Immobilization of antibodies of the present invention as ligand on to sensor chip surface is performed at 25° C. Soluble human PD-L1-Fc fusion protein (and in some cases, cynomolgus monkey PD-L1-Fc fusion proteins) is injected as analyte at concentrations ranging from 0.0123 nM-9 nM. The analysis is performed at 37° C. The contact time for each sample is 180 seconds at 30 μL/minute. The dissociation time was 240-1500 seconds. The immobilized surface is regenerated for 18 seconds with 0.95 M NaCl/25 mM NaOH at 30 μL/minute, and then stabilized for 30 seconds. Binding kinetics are analyzed using the Biacore T200 Evaluation software (Version 3.0). Data are referenced to a blank flow cell, and the data are fit to a 1:1 binding model.

PD-L1 binding to PD-1 = PD-L1 binding to PD-1 (Homo sapiens, UniProt Q9NZQ7); assay: ELISA blocking of the interaction of PD-L1 with PD-1; conditions: after 4 weeks at 4° C., 25° C. and 40° C.
Procedure: The ability for antibodies of the present invention to block PD-L1 binding to PD-1 can be measured in an ELISA assay. For the receptor-ligand blocking assay, varying amounts (of anti-PD-L1 antibody or control IgG are mixed with a fixed amount of biotinylated PD-L1-Fc fusion protein (100 ng/well) and incubated at room temperature for 1 hour. The mixture is transferred to 96-well plates pre-coated with PD-1-Fc (1 μg/ml) and then incubated at room temperature for an additional 1 hour. After washing, streptavidin HRP conjugate is added, and the absorbance at 450 nm is read. IC50 represents the antibody concentration required for 50% inhibition of PD-L1 binding to PD-1.

human PD-L1 [1] = target: T1, human PD-L1 (Homo sapiens, UniProt Q9NZQ7); assay: ELISA binding to recombinant PD-L1; design: purchased R&D Systems; conditions: after 4 weeks at 4° C., 25° C. and 40° C.
Procedure: The ability for antibodies of the present invention to bind human PD-L1 can be measured with an ELISA assay. For the PD-L1 binding assay, a 96-well plate (NUNC®) is coated with human PD-L1-Fc (R&D Systems) overnight at 4° C. Wells are blocked for 2 hours with blocking buffer (PBS containing 5% nonfat dry milk). Wells are washed three times with PBS containing 0.1% TWEEN®-20. Anti-PD-L1 antibody or control IgG (100 μL) is then added and incubated at room temperature for 1 hour. After washing, the plate is incubated with 100 μL of goat anti-human IgG F(ab′)2-HRP conjugate (Jackson Immuno Research) at room temperature for 1 hour. The plates are washed and then incubated with 100 μL of 3,3′, 5,5′-tetra-methylbenzidine. The absorbance at 450 nm is read on a microplate reader. The half maximal effective concentration (EC50) is calculated using GraphPad Prism 6 software.
Target sequence in this assay (Q9NZQ7 with tags, fused parts or gaps limits assumed): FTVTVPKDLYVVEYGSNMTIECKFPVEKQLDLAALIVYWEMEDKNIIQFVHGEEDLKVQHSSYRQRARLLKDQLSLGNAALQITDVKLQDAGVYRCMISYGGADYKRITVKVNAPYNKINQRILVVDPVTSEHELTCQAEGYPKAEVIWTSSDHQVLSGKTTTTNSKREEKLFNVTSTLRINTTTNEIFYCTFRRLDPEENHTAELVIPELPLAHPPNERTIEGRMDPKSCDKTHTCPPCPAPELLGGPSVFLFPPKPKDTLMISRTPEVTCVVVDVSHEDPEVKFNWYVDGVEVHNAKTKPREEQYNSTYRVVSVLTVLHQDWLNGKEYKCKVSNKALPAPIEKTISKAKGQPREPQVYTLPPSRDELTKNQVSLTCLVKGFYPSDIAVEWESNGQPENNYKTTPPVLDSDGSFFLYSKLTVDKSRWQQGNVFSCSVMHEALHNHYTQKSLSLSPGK

human PD-L1 [2] = target: T1, human PD-L1; assay: Binding kinetics and affinity by surface plasmon resonance (Biacore); design: Soluble human PD-L1-Fc fusion protein; conditions: SPR, analysis at 37° C.
Procedure: as §1, §2
Target sequence in this assay (Q9NZQ7 19-238 limits assumed): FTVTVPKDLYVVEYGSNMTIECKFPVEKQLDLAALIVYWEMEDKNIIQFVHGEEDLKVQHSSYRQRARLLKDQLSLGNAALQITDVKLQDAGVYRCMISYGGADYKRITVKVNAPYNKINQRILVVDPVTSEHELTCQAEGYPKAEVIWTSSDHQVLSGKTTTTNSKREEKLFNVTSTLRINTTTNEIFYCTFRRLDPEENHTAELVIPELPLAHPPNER

Chain of PD-L1 binding to PD-1 (Q9NZQ7 19-239 limits assumed): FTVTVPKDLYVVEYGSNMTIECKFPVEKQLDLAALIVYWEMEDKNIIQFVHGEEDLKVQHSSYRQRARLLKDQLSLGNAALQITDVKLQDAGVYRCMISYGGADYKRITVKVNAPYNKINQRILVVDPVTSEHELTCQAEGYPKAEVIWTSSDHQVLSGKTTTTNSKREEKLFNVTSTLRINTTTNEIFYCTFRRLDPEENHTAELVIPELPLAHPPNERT

## LY3300054: IgG1 variant antibody lacking Fc effector function, that binds human PD-L1; HC SEQ ID NO: 10, LC SEQ ID NO: 11
Cyno PD-L1
  Koff: 0.000184 s⁻¹
  Kon: 1.51e+06 M⁻¹ s⁻¹
PD-L1 binding to PD-1
  blocking activities after storage: retains its blocking activities
Human PD-L1 [1]
  binding activities after storage: retains its binding activities
Human PD-L1 [2]
  Koff: 0.000114 s⁻¹
  Kon: 1.4e+06 M⁻¹ s⁻¹
